From US20070202116A1, “Treatment of micro-organism infection” (priority 2001, published 2007)
Read-outs that look alike come from different tables or passages of the source.

Legend:
[1] = system: EMRSA strains, vancomycin resistant subpopulations, Linzolid resistant strains; test: Checkerboard MIC / FIC / FIX of vancomycin and Aurograb (Tables 9, 10); type: cell-based, S. aureus; settings: for MIC In combination: VAN with Aurograb
Description: In order to determine the Minimum Inhibitory Concentration (MIC), the Fractional Inhibitory Concentration (FIC) and the FIX (fractional inhibitory index), the following was method was used.
The cells were diluted in Isosensitest Broth (Oxoid, UK) to give a final inoculum of […] cells per mL. […] To this was added exogenous Aurograb in the range 0.3-25 μg/ml in a checkerboard formation. A negative control series was also prepared containing Aurograb formulation buffer alone. Cultures were incubated for 48 hours at 37° C.
The minimum inhibitory concentration (MIC) was defined as the lowest concentration of agent at which no bacterial growth occurred and was determined by spectrophotometric evaluation of the lack of turbidity (growth) in culture.
Fractional inhibitory concentrations (FIC) and FIX values were calculated. Synergistic activity between the two agents was defined as an FIX value ≦0.5. Indifferent activity was defined as a value of 0.5-4, and a value of ≧4 defined antagonism.
The MIC (Alone) column indicates the minimum inhibitory concentration of the agent when administered alone. The MIC (In combination) column indicates the minimum inhibitory concentration of each drug when used in combination.

[2] = system: EMRSA-15; type: in vivo, S. aureus
Description: Methods: 60 female CD-1 mice (22-24 g) were given 1×10^7 cfu of EMRSA-15 as a 100 μl iv bolus.
All mice were terminated at 48 hours for culture of kidney, liver and spleen.
Results: expressed as log cfu per gram of tissue, unless the majority of mice (>5) were cleared (ie organs were culture-negative). N/A=not applicable. (Table 7)

[3] = system: EMRSA-15; type: in vivo, S. aureus; remark: listed apart in the source
Description: Method: 60 female CD-I mice (22-24 g) were given S. aureus (a fresh clinical isolate of EMRSA-15) at a dose of 8×10^7 cfu in a 100 μl iv bolus.
All mice were terminated at 48 hours for culture of kidney, liver and spleen. Mice fatalities prior to the 48 hour cull were not subject to organ colony counts.

[4] = Group 4: Aurograb 2.0 mg/kg alone iv, 48 hours
[5] = Group 5: Aurograb 0.2 mg/kg alone iv, 10 mice
[6] = Group 5: Aurograb 0.2 mg/kg alone iv, 48 hours
[7] = Group 5: Aurograb 2.0 mg/kg alone iv, 48 hours

B1: Aurograb: human genetic recombinant antibody (scFv with histidine tag, SEQ ID NO: 2) binding GrfA, a staphylococcal ABC transporter protein (protein)
scFv: MAKVQLLQSATEVKKPGASVKVSCKAYGYTFTDYGITWVRQAPGQGLEWMGWISAYNGYTNYAQKFQDRITMTTDASTSTAYMELRSLRPDDTAVLYCARDREDASLLRDGHWGQGTLVTVSSGGGGSGGGGSGGGGSGGGGSETTLTQSPGTLSLSPGERATLSCRASQIVSSSYLAWYQQKPGQAPRLLIYGASSRATGIPDRFSGSGSGTDFTLTISKLEPEDFAVYYCQHYGSSSPWTSRPRDQSDIKRAAALEHHHHHH
modifications: histidine tag; human single chain (scFv) recombinant antibody
FIC ([1]; EMRSA strain 1): 0.006
MIC Alone ([1]; EMRSA strain 1): 125 µg/mL
MIC In combination ([1]; EMRSA strain 1): 0.75 µg/mL
FIC ([1]; EMRSA strain 1A): 0.05
MIC Alone ([1]; EMRSA strain 1A): 250 µg/mL
MIC In combination ([1]; EMRSA strain 1A): 12.5 µg/mL
FIC ([1]; EMRSA strain 2): 0.006
MIC Alone ([1]; EMRSA strain 2): 125 µg/mL
MIC In combination ([1]; EMRSA strain 2): 0.75 µg/mL
FIC ([1]; EMRSA strain 2A): 0.05
MIC Alone ([1]; EMRSA strain 2A): 250 µg/mL
MIC In combination ([1]; EMRSA strain 2A): 12.5 µg/mL
FIC ([1]; EMRSA strain 3): 0.012
MIC Alone ([1]; EMRSA strain 3): 250 µg/mL
MIC In combination ([1]; EMRSA strain 3): 3 µg/mL
FIC ([1]; EMRSA strain 4): 0.0026
MIC Alone ([1]; EMRSA strain 4): 125 µg/mL
MIC In combination ([1]; EMRSA strain 4): 0.325 µg/mL
FIC ([1]; EMRSA strain 5): 0.001
MIC Alone ([1]; EMRSA strain 5): 250 µg/mL
MIC In combination ([1]; EMRSA strain 5): 0.325 µg/mL
FIC ([1]; EMRSA strain 6): 0.0026
MIC Alone ([1]; EMRSA strain 6): 125 µg/mL
MIC In combination ([1]; EMRSA strain 6): 0.325 µg/mL
FIC ([1]; EMRSA strain 7): 0.0026
MIC Alone ([1]; EMRSA strain 7): 125 µg/mL
MIC In combination ([1]; EMRSA strain 7): 0.325 µg/mL
FIC ([1]; EMRSA strain 8): 0.0013
MIC Alone ([1]; EMRSA strain 8): 250 µg/mL
MIC In combination ([1]; EMRSA strain 8): 0.325 µg/mL
FIC ([1]; EMRSA strain 8A): 0.05
MIC Alone ([1]; EMRSA strain 8A): 250 µg/mL
MIC In combination ([1]; EMRSA strain 8A): 12.5 µg/mL
FIC ([1]; EMRSA strain 9): 0.006
MIC Alone ([1]; EMRSA strain 9): 125 µg/mL
MIC In combination ([1]; EMRSA strain 9): 0.75 µg/mL
FIC ([1]; EMRSA strain 10): 0.012
MIC Alone ([1]; EMRSA strain 10): 125 µg/mL
MIC In combination ([1]; EMRSA strain 10): 1.5 µg/mL
FIC ([1]; EMRSA strain 11): 0.006
MIC Alone ([1]; EMRSA strain 11): 125 µg/mL
MIC In combination ([1]; EMRSA strain 11): 0.75 µg/mL
FIC ([1]; EMRSA strain 11A): 0.05
MIC Alone ([1]; EMRSA strain 11A): 250 µg/mL
MIC In combination ([1]; EMRSA strain 11A): 12.5 µg/mL
FIC ([1]; EMRSA strain 12): 0.0013
MIC Alone ([1]; EMRSA strain 12): 250 µg/mL
MIC In combination ([1]; EMRSA strain 12): 0.325 µg/mL
FIC ([1]; EMRSA strain 12A): 0.003
MIC Alone ([1]; EMRSA strain 12A): 250 µg/mL
MIC In combination ([1]; EMRSA strain 12A): 0.75 µg/mL
FIC ([1]; EMRSA strain 13): 0.006
MIC Alone ([1]; EMRSA strain 13): 250 µg/mL
MIC In combination ([1]; EMRSA strain 13): 1.5 µg/mL
FIC ([1]; EMRSA strain 14): 0.012
MIC Alone ([1]; EMRSA strain 14): 125 µg/mL
MIC In combination ([1]; EMRSA strain 14): 1.5 µg/mL
FIC ([1]; EMRSA strain 15): 0.012
MIC Alone ([1]; EMRSA strain 15): 125 µg/mL
MIC In combination ([1]; EMRSA strain 15): 1.5 µg/mL
FIC ([1]; EMRSA strain 15A): 0.006
MIC Alone ([1]; EMRSA strain 15A): 250 µg/mL
MIC In combination ([1]; EMRSA strain 15A): 0.75 µg/mL
FIC ([1]; EMRSA strain 16): 0.012
MIC Alone ([1]; EMRSA strain 16): 250 µg/mL
MIC In combination ([1]; EMRSA strain 16): 1.5 µg/mL
FIC ([1]; EMRSA strain 17): 0.006
MIC Alone ([1]; EMRSA strain 17): 250 µg/mL
MIC In combination ([1]; EMRSA strain 17): 0.75 µg/mL
FIC ([1]; NARSA 1 (Hiramatsu)): 0.001
MIC Alone ([1]; NARSA 1 (Hiramatsu)): 250 µg/mL
MIC In combination ([1]; NARSA 1 (Hiramatsu)): 0.325 µg/mL
FIC ([1]; NARSA 2 (Hiramatsu)): 0.001
MIC Alone ([1]; NARSA 2 (Hiramatsu)): 250 µg/mL
MIC In combination ([1]; NARSA 2 (Hiramatsu)): 0.325 µg/mL
FIC ([1]; NARSA 12 (France)): 0.003
MIC Alone ([1]; NARSA 12 (France)): 250 µg/mL
MIC In combination ([1]; NARSA 12 (France)): 0.75 µg/mL
FIC ([1]; NARSA 17 (New York)): 0.001
MIC Alone ([1]; NARSA 17 (New York)): 250 µg/mL
MIC In combination ([1]; NARSA 17 (New York)): 0.325 µg/mL
FIC ([1]; NARSA 119 (Linezolid R)): 0.02
MIC Alone ([1]; NARSA 119 (Linezolid R)): 125 µg/mL
MIC In combination ([1]; NARSA 119 (Linezolid R)): 3 µg/mL
FIC ([1]; NARSA 120 (Linezolid R)): 0.02
MIC Alone ([1]; NARSA 120 (Linezolid R)): 125 µg/mL
MIC In combination ([1]; NARSA 120 (Linezolid R)): 3 µg/mL
FIC ([1]; NARSA 121 (Linezolid R)): 0.02
MIC Alone ([1]; NARSA 121 (Linezolid R)): 125 µg/mL
MIC In combination ([1]; NARSA 121 (Linezolid R)): 3 µg/mL
Spleen, number of mice cleared ([2]; Group 4: Aurograb 2.0 mg/kg alone iv, 10 mice): 4
Kidney Log cfu/g of tissue [2, 4]: 7.30 ± 1.26 Log cfu/g of tissue
Spleen Log cfu/g of tissue [2, 4]: 3.54 ± 0.61 Log cfu/g of tissue
Liver, number of mice cleared [2, 5]: 2
Spleen, number of mice cleared [2, 5]: 3
Kidney Log cfu/g of tissue [2, 6]: 7.50 ± 1.53 Log cfu/g of tissue
Liver Log cfu/g of tissue [2, 6]: 4.28 ± 1.28 Log cfu/g of tissue
Spleen Log cfu/g of tissue [2, 6]: 3.91 ± 0.87 Log cfu/g of tissue
Mortality ([3]; Aurograb alone 2.0 mg/kg, 10 mice, untreated group 7 deaths): 4 deaths
Survivors at 24 h (n = 10) ([3]; Group 5: Aurograb 2.0 mg/kg alone iv, 8×10^7 cfu): 6
Kidney Log cfu/g tissue [3, 7]: 7.87 ± 1 Log cfu/g tissue
Liver Log cfu/g tissue [3, 7]: 5.18 ± 0.57 Log cfu/g tissue
Spleen Log cfu/g tissue [3, 7]: 5.53 ± 2.74 Log cfu/g tissue
